Where two headings read alike, the source gives them in different places.
Legend:
[1] = Repeat dose pharmacokinetics of EXT608 in male and female cynomolgus monkeys; type: in vivo; details: cynomolgus monkey; for Cmin: 0-48 h; for AUC(0-t): sc
Method: 21-Day Experiment: EXT608 was formulated in 20 mM sodium acetate pH=5.5 buffer with 0.8% sodium chloride. In a repeat dose toxicokinetic study, groups of 4 cynomolgus monkeys (2 males+2 females weighing approximately 2.5 kg each) were subcutaneously dosed every other day at a volume of 0.05 ml/kg with either 1.4, 7 or 20 μg/kg of EXT608. On the last day of dosing, Day 21, blood samples (˜1.0 ml) were collected at t=0 (pre-dose), 0.5, 1, 3, 6, 12, 24, 48, and 72 h. Each blood sample was collected from the saphenous vein into tubes containing K2EDTA and centrifuged (˜2700 g, ˜10 min, ˜5° C.) within 1 hour of collection. Plasma was recovered and divided evenly into duplicate aliquots and frozen. 90-Day Experiment: EXT608 was formulated in 10 mM sodium acetate pH=5.5 buffer with 0.8% sodium chloride and 0.1% Polysorbate 80. In a repeat dose toxicokinetic study, groups of 6 cynomolgus monkeys (3 males+3 females) were subcutaneously dosed every other day at a volume of 0.05 ml/kg with either 0.7 or 2 μg/kg of EXT608. On the last day of dosing, Day 89, blood samples (˜1.0 ml) were collected at t=0 (pre-dose), 0.5, 1, 3, 6, 12, 24, 48, and 72 h. Plasma was prepared as described above for the 21-Day experiment. […] Group-averaged EXT608 levels as a function of time are shown in FIG. 14 for the last dose administration after either 21 days of every other day dosing (20, 7, and 1.4 μg/kg) or 89 days of every other day dosing (2 and 0.7 μg/kg). Surprising, the PK profiles changed as a function of dose level. […] Pharmacokinetic parameters were determined from the plasma concentration versus time data (Table 7) by a non-compartmental extravascular administration model with uniform weighting using Phoenix® WinNonlin® Version 6.4 (Certara L.P. (Pharsight), Princeton, NJ). Pharmacokinetic analysis was performed on data for individual animals collected from t=0 to 72 h following the last administered dose. […] It is noted that the t1/2 values were calculated from less than three half-lives of data. […] The Cmax/Cmin ratio represents the peak-to-trough ratio of EXT608 concentration that is observed during a dosing period. […] Without being bound by theory, the low peak-to-trough ratios observed at low doses could be the result of a slower rate of absorption of EXT608 from the subcutaneous space into circulation. A low peak-to-trough ratio is desirable in many therapeutic applications including parathyroid hormone replacement therapy. This is because it allows dosing at levels close to the ideal efficacious dose without going too high where toxicity is observed, or too low where the efficacy is reduced.

[2] = Single dose pharmacokinetics of EXT607 in male rats; details: rat, in vivo, sc; rats, after subcutaneous dosing; read-out: terminal half-life
Method: In a single dose pharmacokinetic study, EXT607 was formulated in PBS and groups of male rats (n=3) were dosed at a volume of 1 ml/kg as follows: Group 1, 100 μg/kg intravenous; Group 2, 30 μg/kg subcutaneous; Group 3, 100 μg/kg subcutaneous; Group 4, 300 μg/kg subcutaneous. Blood (0.25 mL) was collected via the jugular vein cannula, transferred into tubes containing K2EDTA, and kept on wet ice until processed for plasma. Blood samples were collected at 0 (predose), 0.083 (IV only), 0.25, 0.5, 1, 2, 4, 6, 8, 12, 24, 36, 48, 60 and 72 h postdose.
Pharmacokinetic parameters were determined from the plasma concentration versus time data (Table 4) by a non-compartmental analysis with uniform weighting using Phoenix® WinNonlin® Version 6.3 (Certara L.P. (Pharsight), St. Louis, MO). The concentration versus time data were analyzed using the IV bolus or extravascular administration models. Best fit Lambda z ranges were used.

[3] = in vivo, 1.4 ug/kg, every-other-day SC 1.4 μg/kg, 21 days

## C=C1CC[C@H](OCCCNC(=O)CCOCCOCCOCCOCCOCCOCCOCCOCCOCCOCCOCCOCCOCCOCCOCCOCCOCCOCCOCCOCCOCCOCCOCCOCCOCCOCCOCCOCCOCCOCCOCCOCCOCCOCCOCCOCCNC(=O)CCN2C(=O)CC(SC[C@H](NC(=O)[C@H](Cc3ccccc3)NC(=O)[C@H](CC(N)=O)NC(=O)[C@H](Cc3c[nH]cn3)NC(=O)[C@@H](NC(=O)[C@H](CC(=O)O)NC(=O)[C@H](CCC(N)=O)NC(=O)[C@H](CC(C)C)NC(=O)[C@H](CCCCN)NC(=O)[C@H](CCCCN)NC(=O)[C@H](CCCNC(=N)N)NC(=O)[C@H](CC(C)C)NC(=O)[C@H](Cc3c[nH]c4ccccc34)NC(=O)[C@H](CCC(=O)O)NC(=O)[C@@H](NC(=O)[C@H](CCCNC(=N)N)NC(=O)[C@H](CCC(=O)O)NC(=O)[C@H](CCSC)NC(=O)[C@H](CO)NC(=O)[C@H](CC(N)=O)NC(=O)[C@H](CC(C)C)NC(=O)[C@H](Cc3c[nH]cn3)NC(=O)[C@H](CCCCN)NC(=O)CNC(=O)[C@H](CC(C)C)NC(=O)[C@H](CC(N)=O)NC(=O)[C@H](Cc3c[nH]cn3)NC(=O)[C@H](CCSC)NC(=O)[C@H](CC(C)C)NC(=O)[C@H](CCC(N)=O)NC(=O)[C@@H](NC(=O)[C@H](CCC(=O)O)NC(=O)[C@H](CO)NC(=O)[C@@H](NC(=O)[C@@H](N)CO)C(C)C)[C@@H](C)CC)C(C)C)C(C)C)C(N)=O)C2=O)C/C1=C/C=C1\CCC[C@]2(C)[C@@H]([C@H](C)CCCC(C)(C)O)CC[C@@H]12 (some centres unmarked) [EXT608]
[1]; every-other-day SC 0.7 μg/kg, 89 days
  Cmin: 0.600 ng/mL
[1]; every-other-day SC 1.4 μg/kg, 21 days
  Cmin: 0.485 ng/mL
[1]; every-other-day SC 2 μg/kg, 89 days
  Cmin: 0.635 ng/mL
[1]; every-other-day SC 7 μg/kg, 21 days
  Cmin: 0.991 ng/mL
[1]; every-other-day SC 20 μg/kg, 21 days
  Cmin: 1.97 ng/mL
[1]; in vivo, 0.7 ug/kg, every-other-day SC 0.7 μg/kg, 89 days, read-out: AUC0-48 h
  AUC(0-t): 45.4 ng·h/mL
[1]; in vivo, 0.7 ug/kg, every-other-day SC 0.7 μg/kg, 89 days, read-out: AUClast
  AUC(0-t): 61.6 ng·h/mL
[1]; in vivo, 1.4 ug/kg, every-other-day SC 1.4 μg/kg, 21 days, read-out: AUC0-48 h
  AUC(0-t): 41.5 ng·h/mL
[1]; in vivo, 1.4 ug/kg, every-other-day SC 1.4 μg/kg, 21 days, read-out: AUClast
  AUC(0-t): 48 ng·h/mL
[1]; in vivo, 2 ug/kg, every-other-day SC 2 μg/kg, 89 days, read-out: AUC0-48 h
  AUC(0-t): 63.1 ng·h/mL
[1]; in vivo, 7 ug/kg, every-other-day SC 7 μg/kg, 21 days, read-out: AUC0-48 h
  AUC(0-t): 147 ng·h/mL
[1]; in vivo, 20 ug/kg, every-other-day SC 20 μg/kg, 21 days, read-out: AUC0-48 h
  AUC(0-t): 401 ng·h/mL
[1]; [3]
  Cmax: 1.63 ng/mL
  Tmax: 1.8 h
[1]; in vivo, 20 ug/kg, every-other-day SC 20 μg/kg, 21 days
  Cmax: 38.1 ng/mL
[1]; in vivo, repeated every-other-day SC dosing, across doses, calculated from less than three half-lives of data, read-out: t1/2 of elimination
  half-life: 34.7 to 51 h
[2]
  half-life: 8 to 15 h
